Results: patent publication US20260243766A1 (CHILDREN S HOSPITAL OF PHILADELPHIA, published 2026)

Target: T1, A*23:01/PHOX2B (human, UniProt P61769 21-119, limits assumed)
T1 construct: The preparation of this complex is not described; also called HLA-A*23:01/PHOX2B complex
Experiment: SPR

- Kd: ~20 µM
B1: 10LH single-chain antibody fragment (Clone 10 (RU141-10) scFv) (scFv)
scFv: SRNGGDGQSVLTQPPSVSVSPGQTASITCSGDSLGNKYACWYQQKPGQSPVLVIYQDSKRPSGIPERFSGSNSGNTATLTISGTQAMDEADYYCQAWDSSRGYTVVFGTGTKVTVSSQTGGSGGGGSGGGGSGGGGSEVQLLESGGGLVQPGGSLRLSCAASGFTFDSYAMSWVRQAPGKGLEWVSAISGYGGSTYYADSVKGRFTISRDNSKNTLYLQMNSLRAEDTAVYYCAKYTYFLDAFDIWGQGTMVTVSSS
notes: also called Clone 10LH; scFV 10LH
